Source: article PMC11615309 (Nature Communications, 2024)

Target: T1, 6xHis-tagged FAT1 cadherin #28-33 (3024-3789 aa) (UniProt Q14517 3024-3789)
T1 sequence: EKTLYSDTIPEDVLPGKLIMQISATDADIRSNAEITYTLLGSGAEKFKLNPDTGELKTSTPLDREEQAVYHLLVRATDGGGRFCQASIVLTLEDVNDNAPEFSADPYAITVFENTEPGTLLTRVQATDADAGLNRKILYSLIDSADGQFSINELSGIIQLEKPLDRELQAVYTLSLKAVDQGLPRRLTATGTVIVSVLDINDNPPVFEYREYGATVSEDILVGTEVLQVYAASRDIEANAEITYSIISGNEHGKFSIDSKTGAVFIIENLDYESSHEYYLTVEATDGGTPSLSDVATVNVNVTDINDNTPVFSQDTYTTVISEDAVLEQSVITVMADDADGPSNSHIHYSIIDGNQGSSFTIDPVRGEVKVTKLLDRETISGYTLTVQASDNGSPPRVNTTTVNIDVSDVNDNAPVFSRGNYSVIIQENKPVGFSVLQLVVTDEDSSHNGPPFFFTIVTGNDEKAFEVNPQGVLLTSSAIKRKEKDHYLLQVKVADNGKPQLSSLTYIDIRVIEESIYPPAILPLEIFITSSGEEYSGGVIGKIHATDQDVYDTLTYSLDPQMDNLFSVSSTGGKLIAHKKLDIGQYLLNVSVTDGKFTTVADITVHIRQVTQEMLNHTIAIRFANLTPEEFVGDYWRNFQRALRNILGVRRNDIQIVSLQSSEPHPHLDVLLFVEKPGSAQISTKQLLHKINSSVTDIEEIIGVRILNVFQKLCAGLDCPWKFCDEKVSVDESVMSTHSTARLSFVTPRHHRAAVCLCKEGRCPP
Experiment: pull-down

B1: GST-OLFM4 (OLFM4 without signal peptide) (domain or fragment)
chain: not shown
**Q.** Does B1 bind?
**A.** Result: binds
